Biological target: T148-ADP-ribosylated-actin (100% TccC3-ADP-ribosylated actin) (not stated (purified from rabbit or chicken skeletal muscle)), P68135
Settings: remark: other sources report otherwise

B1: Actin-depolymerizing factor, P60981 1-165 (natural protein)
chain: MASGVQVADEVCRIFYDMKVRKCSTPEEIKKRKKAVIFCLSADKKCIIVEEGKEILVGDVGVTITDPFKHFVGMLPEKDCRYALYDASFETKESRKEELMFFLWAPELAPLKSKMIYASSKDAIKKKFQGIKHECQANGPEDLNRACIAEKLGGSLIVAFEGCPV
other: 15 fold
